Among the data in the supplement of paper PMC10567573 are protein stability index values, retold here.

To fix the notation:
B1: SCNN1D (parent)
chain: IRVMVHGRNHTPFLGHHSFSVRPG
B2: CSNK1G1 (parent)
chain: GSLPWQGLKADTLKERYQKIGDTK
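Also: lentivirally expressed fusions sorted by FACS into six bins by GFP to DsRed ratio, PSI derived from sequencing read proportions per bin multiplied by bin number.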

Variants of B1 are the subject of the first series. As to the kind of experiment: protein stability index of a GFP-peptide fusion (GPS, HEK-293T) (PSI 1-6); higher = more stable. To be noted: c terminus: a fixed tail appended.
In the case of IRVMVHGRNHTPFLGHHSFSVDPG [R22D], the protein stability index was 2.85. For the variant IRVMVHGRNHTPFLGHHSFSVPPG [R22P], the protein stability index stood at 1.68. Turning to IRVMVHGRNHTPFLGHHSFSVWPG [R22W], the protein stability index came to 3.39.

For the variant IRVMVHGRNHTPFLGHHSFSVFPG [R22F], the protein stability index was determined as 2.77.

IRVMVHGRNHTPFLGHHSFSVSPG [R22S]: the protein stability index amounted to 2.31. Same read-out and setting: to IRVMVHGRNHTPFLGHHSFSVMPG [R22M] belongs 3.3; to IRVMVHGRNHTPFLTHHSFSVRPG [G15T], 1.88; to IRVMVHGRNHTPFLVHHSFSVRPG [G15V], 4.3. The same measure, in the same setting: to IRVMVHGRNHTPFLQHHSFSVRPG [G15Q] belongs 1.54; to IRVMVHGRNHTPFLEHHSFSVRPG [G15E], 4.06; to IRVMVHGRNHTPFLGSHSFSVRPG [H16S], 2.26. On to IRVMVHGRNHTPFLGLHSFSVRPG [H16L], for which the protein stability index came to 3.83. Consider IRVMVHGRNHTPFLGQHSFSVRPG [H16Q], for which the protein stability index amounted to 3.16.

For IRVGVHGRNHTPFLGHHSFSVRPG [M4G], the protein stability index was 1.5.

IRVAVHGRNHTPFLGHHSFSVRPG [M4A]: the protein stability index was 1.92. On the same count and under the same terms, the value for IRVDVHGRNHTPFLGHHSFSVRPG [M4D] was 1.88; that for IRVKVHGRNHTPFLGHHSFSVRPG [M4K] was 1.72; that for IRVPVHGRNHTPFLGHHSFSVRPG [M4P] was 3.2.

In the case of IRVWVHGRNHTPFLGHHSFSVRPG [M4W], the protein stability index is 2.32. Same read-out and setting: the value for IRVNVHGRNHTPFLGHHSFSVRPG [M4N] was 2.92; that for IRAMVHGRNHTPFLGHHSFSVRPG [V3A] was 2.42; that for IRSMVHGRNHTPFLGHHSFSVRPG [V3S] was 2.13. Still for that read-out and setting: the value for IRYMVHGRNHTPFLGHHSFSVRPG [V3Y] was 2.43.

For IRNMVHGRNHTPFLGHHSFSVRPG [V3N], the protein stability index worked out at 1.85. With IRTMVHGRNHTPFLGHHSFSVRPG [V3T], the protein stability index turned out to be 2.2.

As to IRQMVHGRNHTPFLGHHSFSVRPG [V3Q], the protein stability index stood at 1.91. On the same count and under the same terms, to IRFMVHGRNHTPFLGHHSFSVRPG [V3F] belongs 1.93. On the same count and under the same terms, to IRPMVHGRNHTPFLGHHSFSVRPG [V3P] belongs 2.75. The same measure, in the same setting: to IRKMVHGRNHTPFLGHHSFSVRPG [V3K] belongs 3.58; to IRRMVHGRNHTPFLGHHSFSVRPG [V3R], 2.13; to IRGMVHGRNHTPFLGHHSFSVRPG [V3G], 2.33.

For IRDMVHGRNHTPFLGHHSFSVRPG [V3D], the protein stability index came to 2.17. The same measure, in the same setting: to IRWMVHGRNHTPFLGHHSFSVRPG [V3W] belongs 1.6; to IRHMVHGRNHTPFLGHHSFSVRPG [V3H], 2.07. Still for that read-out and setting: the value for IRLMVHGRNHTPFLGHHSFSVRPG [V3L] was 2.11; that for IRVMVHGRNHYPFLGHHSFSVRPG [T11Y] was 3.8.

With IRVMVHGRNHFPFLGHHSFSVRPG [T11F], the protein stability index turned out to be 2.59. On the same count and under the same terms, to IRVMVHGRNHQPFLGHHSFSVRPG [T11Q] belongs 2.44; to IRVMVHGRNHTPFLGHHSDSVRPG [F19D], 1.53; to IRVMVHGRNHTPFLGHHSHSVRPG [F19H], 1.91.

Consider IRVMVHGRNHTPFLGHHSQSVRPG [F19Q], for which the protein stability index was 1.77.

Turning to IRVMVHGRNHTPFLGHHSNSVRPG [F19N], the protein stability index was found to be 1.09. On the same count and under the same terms, the value for IRVMVHGRNHTPFLGHHSKSVRPG [F19K] was 1.77. Still for that read-out and setting: to IRVMVHGRNHTPFLGHHSTSVRPG [F19T] belongs 2.35. Still for that read-out and setting: the value for IRVMVHGRNHTPFLGHHSRSVRPG [F19R] was 1.09; that for IRVMVHGRNHTPFLGHHSPSVRPG [F19P] was 1.01; that for IRVMVHGRNHTPFLGHHSMSVRPG [F19M] was 1.87. In the case of IRVMVHGRNHTPFLGHHSGSVRPG [F19G], the protein stability index came to 1.52. The same measure, in the same setting: to IRVMVHGRNHTPFLGHHSISVRPG [F19I] belongs 2.41; to IRVMVHGRNHTPFLGHHSFSVRAG [P23A], 1.32. Turning to IRVMVHGRNHTPFLGHHSFSVRWG [P23W], the protein stability index came to 1.89. Take IRVMVHGRNHTPFLGHHSFSVRTG [P23T]: the protein stability index came out at 1.8. With IRVMVHGRNHTPFLGHHSFSVRQG [P23Q], the protein stability index turned out to be 1.64.

IRVMVHGRNHTPFLGHHSFSVRKG [P23K]: the protein stability index came to 1.44. The same measure, in the same setting: the value for IRVMVHGRNHTPFLGHHSFSVRNG [P23N] was 2.25. On the same count and under the same terms, to IRVMVHGRNHTPFLGHHSFSVRSG [P23S] belongs 2.45; to IRVMVHGRNHTPFLGHHSFIVRPG [S20I], 2.92.

For the variant IRVMVHGRNHTPFLGHHSFKVRPG [S20K], the protein stability index amounted to 2.98. Still for that read-out and setting: the value for IRVMVHGRNHTPFLGHHSFNVRPG [S20N] was 1.84; that for IRVMVHGRNHTPFLGHHSFTVRPG [S20T] was 2.59. Still for that read-out and setting: the value for IRVMVHGRNHTPFIGHHSFSVRPG [L14I] was 2.76; that for IRVMVHGRNHTPFQGHHSFSVRPG [L14Q] was 2.67; that for IRVMVHGRNHTPFYGHHSFSVRPG [L14Y] was 2.42.

On to IRVMVHGRNHTPFWGHHSFSVRPG [L14W], for which the protein stability index came out at 2.98. Still for that read-out and setting: to IRVMVHGRNHTPFHGHHSFSVRPG [L14H] belongs 2.23.

Turning to IRVMVHGRNHTPFEGHHSFSVRPG [L14E], the protein stability index is 1.8. Still for that read-out and setting: the value for IRVMVHGRNHTPFNGHHSFSVRPG [L14N] was 2.43; that for IRVMVHGRNHTPFLGHHSFSVRPR [G24R] was 1.19. On to IRVMVHGRNHTPFLGHHSFSVRPD [G24D], for which the protein stability index was 2.04. In the case of IRVMVHGRNHTPFLGHHSFSVRPN [G24N], the protein stability index stood at 1.56. Still for that read-out and setting: the value for IRVMVHGRNHTPFLGHHSFSVRPH [G24H] was 1.84; that for IRVMVHGRNHTPFLGHHSFSVRPK [G24K] was 1.16.

Turning to IRVMVHGRNHTPFLGHHSFSVRPI [G24I], the protein stability index was 2.44.

In another series the parent is B2. The description is as above. To be noted: c terminus: a fixed tail appended.
Regarding GSLPWMGLKADTLKERYQKIGDTK [Q6M], the protein stability index is 4.07.

Regarding GSLPWQGLKADTLKERYQKCGDTK [I20C], the protein stability index stood at 4.35.

Turning to GLLPWQGLKADTLKERYQKIGDTK [S2L], the protein stability index came to 4.17.

GSLPWQGLKADTLKERYQKIGDTG [K24G]: the protein stability index was found to be 3.79. On the same count and under the same terms, to GSLPWQGLKADTLKERYQKIGDTC [K24C] belongs 3.4; to GSLPWQGLKADTLKERYQKIGCTK [D22C], 3.81.

Consider GSLPWQGLKADTLKERYTKIGDTK [Q18T], for which the protein stability index worked out at 4.26. On the same count and under the same terms, to GSLPWQGLKADTLKERYRKIGDTK [Q18R] belongs 3.96. The same measure, in the same setting: to GSLPWQGLKADTLKEQYQKIGDTK [R16Q] belongs 4.44; to GSLPWQGLKADTLKECYQKIGDTK [R16C], 4.29.

For the variant GSLPWQGLKADTLKEIYQKIGDTK [R16I], the protein stability index was 3.26. On the same count and under the same terms, to GSLPWQGLKADTLKERYQKIDDTK [G21D] belongs 4.57; to GSLPWQGLKADTLKERYQKIGDGK [T23G], 4.34; to GSLPWQGLEADTLKERYQKIGDTK [K9E], 4.69. On the same count and under the same terms, to GSLPWQGLNADTLKERYQKIGDTK [K9N] belongs 4.46; to GSLPWQYLKADTLKERYQKIGDTK [G7Y], 3.49; to GSLPWQGLKADWLKERYQKIGDTK [T12W], 3.27. GSLPWQGLKADELKERYQKIGDTK [T12E]: the protein stability index amounted to 4.85. As for GSLPWQGLKADCLKERYQKIGDTK [T12C], the protein stability index worked out at 4.06. The same measure, in the same setting: the value for GSLPWQGCKADTLKERYQKIGDTK [L8C] was 3.35; that for GSSPWQGLKADTLKERYQKIGDTK [L3S] was 4.2.
